Assay results from PMC2191386 (The Journal of Experimental Medicine, 1994).

Target: T1, LFA-3, purified (human (endogenous in JY), UniProt P19256 29-250)
T1 sequence (looked up): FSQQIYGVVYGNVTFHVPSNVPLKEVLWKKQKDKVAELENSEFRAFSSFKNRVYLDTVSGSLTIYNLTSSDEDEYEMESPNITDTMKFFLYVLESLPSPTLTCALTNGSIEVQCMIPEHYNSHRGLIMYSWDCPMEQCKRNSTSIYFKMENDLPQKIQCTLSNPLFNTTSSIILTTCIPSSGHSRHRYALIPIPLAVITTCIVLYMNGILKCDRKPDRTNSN
Assay: cell adhesion to purified protein

fold increase of cell binding on PMA stimulation: 3 fold
B1: CD2 on SKW3 cells (receptor, human (endogenous in SKW3), UniProt P06729 25-351, looked up)
chain: KEITNALETWGALGQDINLDIPSFQMSDDIDDIKWEKTSDKKKIAQFRKEKETFKEKDTYKLFKNGTLKIKHLKTDDQDIYKVSIYDTKGKNVLEKIFDLKIQERVSKPKISWTCINTTLTCEVMNGTDPELNLYQDGKHLKLSQRVITHKWTTSLSAKFKCTAGNKVSKESSVEPVSCPEKGLDIYLIIGICGGGSLLMVFVALLVFYITKRKKQRSRRNDEELETRAHRVATEERGRKPHQIPASTPQNPATSQHPPPPPGHRSQAPSHRPPPPGHRVQHQPQKRPPAPSGTQVHQQKGPPLPRPRVQPKPPHGAAENSLSPSSN
